Assay results taken from IntAct's records for PubMed 24036454.

B1: Protein GLUTAMINE DUMPER 1 (Arabidopsis thaliana (Mouse-ear cress)), O81775 (parent)
chain: MRPLSVQSKFEDVATSTSVNHHGVTPQSPWHSPVPYLFGGLAAMLGLIAFALLILACSYWRLSSSGEEDGQNVDEEKESRSGDKAANGAYEEKFLVIMAGEDLPRYLATPAMKKCTCGGHEGKMVISQEESVAKEEEKMREGEEEKVKDTGETTTTSH
partner: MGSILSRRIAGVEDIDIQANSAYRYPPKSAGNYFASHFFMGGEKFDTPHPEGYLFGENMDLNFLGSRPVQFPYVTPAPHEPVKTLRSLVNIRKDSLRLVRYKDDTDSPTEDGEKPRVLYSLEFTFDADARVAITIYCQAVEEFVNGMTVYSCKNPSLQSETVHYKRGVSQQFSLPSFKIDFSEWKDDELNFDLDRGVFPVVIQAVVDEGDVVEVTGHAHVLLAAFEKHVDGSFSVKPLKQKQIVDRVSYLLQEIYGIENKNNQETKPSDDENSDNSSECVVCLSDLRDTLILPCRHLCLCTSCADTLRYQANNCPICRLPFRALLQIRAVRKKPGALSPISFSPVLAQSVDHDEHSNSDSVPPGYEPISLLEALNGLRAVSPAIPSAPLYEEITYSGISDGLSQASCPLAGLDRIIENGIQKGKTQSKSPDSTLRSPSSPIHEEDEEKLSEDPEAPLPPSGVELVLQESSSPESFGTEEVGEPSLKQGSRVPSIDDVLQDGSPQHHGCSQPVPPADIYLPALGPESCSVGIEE
B2: Protein GLUTAMINE DUMPER 1 (Arabidopsis thaliana (Mouse-ear cress)), O81775 (parent)
chain: B1 chain
partner: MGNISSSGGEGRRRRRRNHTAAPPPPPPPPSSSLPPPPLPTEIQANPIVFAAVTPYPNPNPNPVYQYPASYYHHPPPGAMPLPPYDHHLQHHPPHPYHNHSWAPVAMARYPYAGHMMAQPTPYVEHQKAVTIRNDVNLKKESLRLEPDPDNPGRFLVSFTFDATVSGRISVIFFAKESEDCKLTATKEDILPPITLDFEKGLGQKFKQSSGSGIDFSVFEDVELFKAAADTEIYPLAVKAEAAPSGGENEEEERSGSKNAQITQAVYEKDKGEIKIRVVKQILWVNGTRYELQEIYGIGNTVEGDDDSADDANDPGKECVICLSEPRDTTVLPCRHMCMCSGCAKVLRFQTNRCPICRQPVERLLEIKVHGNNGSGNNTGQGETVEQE

Variants of: B1
Settings: with mgrn1_rat Mgrn1, Q5XIQ4

Q: Which “effect of a mutation on the interaction” value does the source give for MRPLSVQSKFEDVATSTSVNHHGVTPQSPWHSPVPYLFGGLAAMLGLIAFALLILACSYWRLSSSGEEDGQNVDEEKESRSGDKAANGAYEEKFLVIMAREDLPRYLATPAMKKCTCGGHEGKMVISQEESVAKEEEKMREGEEEKVKDTGETTTTSH [G100R] here?
A: disrupting interaction

Variants of: B2
Settings: with lofg2_arath LOG2, Q9S752

Q: How did the “effect of a mutation on the interaction” value turn out when MRPLSVQSKFEDVATSTSVNHHGVTPQSPWHSPVPYLFGGLAAMLGLIAFALLILACSYWRLSSSGEEDGQNVDEEKESRSGDKAANGAYEEKFLFFFFFEDLPRYLATPAMKKCTCGGHEGKMVISQEESVAKEEEKMREGEEEKVKDTGETTTTSH [V96F;I97F;M98F;A99F;G100F] was run?
A: disrupting interaction

Variants of: B2
Settings: with lofg2_arath LOG2, Q9S752
Remark: another data set of the same source

Q: With MRPLSVQSKFEDVATSTSVNHHGVTPQSPWHSPVPYLFGGLAAMLGLIAFALLILACSYWRLSSSGEEDGQNVDEEKESRSGDKAANGAYEEKFLVIMAREDLPRYLATPAMKKCTCGGHEGKMVISQEESVAKEEEKMREGEEEKVKDTGETTTTSH [G100R] as the variant, how does the “effect of a mutation on the interaction” value read?
A: disrupting interaction
